What was measured:
Experiment in all cases: Quantitative phosphorylation assay of T33-Sic1ΔC constructs and recombinant substrates
Format in all cases: biochemical
Conditions in all cases: Table S2; purified protein substrate; relative values, not divided by [S]
[1] = target: T1, Cln2-Cdk1 (Saccharomyces cerevisiae, UniProt P00546+P20438)
T1 construct: We purified the four cyclin-Cdk1 complexes from yeast; made in house; host or cells: S. cerevisiae strain DMY305 (galactose-induced); Cks1 from bacteria
T1 sequence (P00546 2-298 limits assumed): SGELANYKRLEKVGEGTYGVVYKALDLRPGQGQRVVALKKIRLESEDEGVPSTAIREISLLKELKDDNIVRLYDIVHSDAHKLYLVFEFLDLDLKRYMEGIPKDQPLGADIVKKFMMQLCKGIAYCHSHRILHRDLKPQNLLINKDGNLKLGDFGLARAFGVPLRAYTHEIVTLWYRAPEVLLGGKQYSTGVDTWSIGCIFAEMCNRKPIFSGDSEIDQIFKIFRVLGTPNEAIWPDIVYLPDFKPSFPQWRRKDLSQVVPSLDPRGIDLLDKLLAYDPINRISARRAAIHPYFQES
T1 sequence (P20438 whole entry partner): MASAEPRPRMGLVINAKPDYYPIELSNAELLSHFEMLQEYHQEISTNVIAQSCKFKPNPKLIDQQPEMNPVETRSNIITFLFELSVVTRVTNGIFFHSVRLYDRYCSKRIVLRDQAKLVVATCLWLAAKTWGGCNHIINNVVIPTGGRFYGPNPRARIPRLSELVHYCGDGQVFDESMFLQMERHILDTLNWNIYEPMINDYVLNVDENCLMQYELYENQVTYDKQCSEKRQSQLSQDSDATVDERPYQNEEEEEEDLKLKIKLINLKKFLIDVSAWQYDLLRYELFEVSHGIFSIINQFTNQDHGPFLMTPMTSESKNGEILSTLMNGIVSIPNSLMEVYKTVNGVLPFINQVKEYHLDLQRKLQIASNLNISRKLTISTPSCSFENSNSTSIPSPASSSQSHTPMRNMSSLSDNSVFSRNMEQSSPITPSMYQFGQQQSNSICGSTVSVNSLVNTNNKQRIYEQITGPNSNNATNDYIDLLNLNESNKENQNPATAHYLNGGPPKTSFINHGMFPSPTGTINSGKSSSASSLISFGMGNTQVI
T1 sequence (P20486 whole entry partner): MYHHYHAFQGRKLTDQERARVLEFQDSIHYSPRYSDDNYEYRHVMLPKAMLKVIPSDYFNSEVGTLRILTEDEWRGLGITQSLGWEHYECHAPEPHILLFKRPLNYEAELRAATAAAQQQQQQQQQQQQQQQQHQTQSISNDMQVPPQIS

[2] = target: T2, Clb2-Cdk1 (Saccharomyces cerevisiae, UniProt P00546+P24869)
T2 construct: We purified the four cyclin-Cdk1 complexes from yeast; made in house; host or cells: S. cerevisiae strain DOM0077 (gal-CLB2-TAP, sic1 deleted); Cks1 from bacteria
T2 sequence (P00546 2-298 limits assumed): as the sequence (P00546 2-298 limits assumed) above
T2 sequence (P24869 2-491 partner limits assumed): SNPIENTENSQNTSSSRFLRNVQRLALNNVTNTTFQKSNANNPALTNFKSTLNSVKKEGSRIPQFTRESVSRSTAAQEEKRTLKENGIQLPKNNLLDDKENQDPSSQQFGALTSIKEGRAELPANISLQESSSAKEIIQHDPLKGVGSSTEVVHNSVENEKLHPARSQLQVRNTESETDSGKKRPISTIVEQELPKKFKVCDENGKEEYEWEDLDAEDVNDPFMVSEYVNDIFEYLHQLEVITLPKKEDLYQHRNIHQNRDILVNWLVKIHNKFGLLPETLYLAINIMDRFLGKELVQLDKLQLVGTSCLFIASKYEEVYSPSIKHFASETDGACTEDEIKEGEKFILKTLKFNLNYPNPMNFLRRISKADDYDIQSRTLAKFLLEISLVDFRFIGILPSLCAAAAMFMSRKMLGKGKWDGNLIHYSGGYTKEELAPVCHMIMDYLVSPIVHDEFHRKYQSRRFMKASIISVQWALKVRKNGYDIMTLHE
T2 sequence (P20486 whole entry partner): as the sequence (P20486 whole entry partner) above

[3] = target: T3, Clb3-Cdk1 (Saccharomyces cerevisiae, UniProt P00546+P24870)
T3 construct: We purified the four cyclin-Cdk1 complexes from yeast; made in house; host or cells: S. cerevisiae strain DOM0957 (gal-CLB3-TAP, sic1 deleted); Cks1 from bacteria
T3 sequence (P00546 2-298 limits assumed): as the sequence (P00546 2-298 limits assumed) above
T3 sequence (P24870 whole entry partner): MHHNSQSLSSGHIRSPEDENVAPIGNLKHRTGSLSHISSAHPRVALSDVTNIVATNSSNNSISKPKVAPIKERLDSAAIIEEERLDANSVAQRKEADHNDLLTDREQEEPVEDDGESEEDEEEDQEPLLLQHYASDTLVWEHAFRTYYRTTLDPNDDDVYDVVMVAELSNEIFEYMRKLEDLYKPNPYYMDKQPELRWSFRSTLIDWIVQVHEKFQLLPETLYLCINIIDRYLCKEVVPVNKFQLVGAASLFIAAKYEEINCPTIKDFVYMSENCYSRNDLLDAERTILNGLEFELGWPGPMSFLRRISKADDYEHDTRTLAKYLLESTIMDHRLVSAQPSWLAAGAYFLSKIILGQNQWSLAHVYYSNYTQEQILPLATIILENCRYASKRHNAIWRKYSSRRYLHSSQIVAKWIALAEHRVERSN
T3 sequence (P20486 whole entry partner): as the sequence (P20486 whole entry partner) above

[4] = target: T4, Clb5-Cdk1 (Saccharomyces cerevisiae, UniProt P00546+P30283)
T4 construct: We purified the four cyclin-Cdk1 complexes from yeast; made in house; host or cells: S. cerevisiae strain DOM0076 (gal-CLB5-TAP, sic1 deleted); Cks1 from bacteria
T4 sequence (P00546 2-298 limits assumed): as the sequence (P00546 2-298 limits assumed) above
T4 sequence (P30283 whole entry partner): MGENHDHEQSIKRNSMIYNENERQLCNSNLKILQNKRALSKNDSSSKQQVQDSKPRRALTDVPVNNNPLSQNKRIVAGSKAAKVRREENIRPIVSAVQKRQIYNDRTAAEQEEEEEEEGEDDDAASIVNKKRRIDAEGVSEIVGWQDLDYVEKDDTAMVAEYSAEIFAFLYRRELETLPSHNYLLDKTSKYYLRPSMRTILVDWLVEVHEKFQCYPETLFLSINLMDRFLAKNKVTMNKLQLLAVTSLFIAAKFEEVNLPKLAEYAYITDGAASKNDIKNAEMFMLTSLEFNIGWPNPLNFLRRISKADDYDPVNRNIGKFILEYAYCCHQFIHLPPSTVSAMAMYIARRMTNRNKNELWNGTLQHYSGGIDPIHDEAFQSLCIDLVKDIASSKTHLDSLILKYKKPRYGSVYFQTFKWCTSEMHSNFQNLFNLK
T4 sequence (P20486 whole entry partner): as the sequence (P20486 whole entry partner) above

[5] = target: T5, Clb5hpm-Cdk1 (Saccharomyces cerevisiae, UniProt P00546)
T5 construct: made in house; host or cells: S. cerevisiae strain DOM0963 (gal-CLB5hpm-TAP, sic1 deleted); Cks1 from bacteria
T5 sequence (P00546 2-298 limits assumed): as the sequence (P00546 2-298 limits assumed) above
Procedure, shortened: (§1)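 Yeast cyclin-Cdk1 complexes (1–10 nM, TAP-purified) phosphorylated 6His-T33-Sic1ΔC (other S/T-P sites mutated to Ala-Ala) or recombinant substrates at 0.5–2 μM, below KM, with 32P-γ-ATP. Initial velocities (≤10% turnover) from two or more time points, SDS-PAGE stopped; relative kcat/KM from v0 ratios.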

[6] = target: T6, Clb3hpm-Cdk1 (Saccharomyces cerevisiae, UniProt P00546+P24870)
T6 construct: made in house; host or cells: S. cerevisiae strain MK0168 (gal-CLB3hpm-TAP, sic1 deleted); Cks1 from bacteria
Procedure, shortened: as §1

[7] = target: T7, Clb2hpm-Cdk1 (Saccharomyces cerevisiae, UniProt P00546)
T7 construct: made in house; host or cells: S. cerevisiae strain DOM0964 (gal-CLB2hpm-TAP, sic1 deleted); Cks1 from bacteria
T7 sequence (P00546 2-298 limits assumed): as above
Procedure, shortened: as §1

Molecule	kcat/KM, Cln2 [1] [relative units]	kcat/KM, Clb2 [2] [relative units]	kcat/KM, Clb3 [3] [relative units]	kcat/KM, Clb5 [4] [relative units]	kcat/KM, Clb5hpm [5] [relative units]	kcat/KM, Clb3hpm [6] [relative units]	kcat/KM, Clb2hpm [7] [relative units]
TOS4: putative transcription factor, tested as Cdk1 substrate (protein, UniProt Q06266 1-489, looked up) Protein TOS4: MSSQFPSSPYRTVDPYSPPNYKQQPNCPSSNYEKAGKTASESIGNFGKGDYPTPFPSSSIGRVSSPVRSNKVDAIPSSPAFPGQLAETSPKFSSKLSSPSRHTRVINAELDPSKISTITVGRNSSQCDVALCKNKFISRVHASITYLPQTNEVKIHCFSMNGLIVTYRKQFDCYQLKDTMNNNNRAYRLVPRFSNEKCVKEIQDEGGFINFTLEEGDTVYMTYYKGIMLDFRQVLLRISLKEKNSSSEPLRFEKKAEFESESETKHMGSIRKHPLIFTDTSMDRPKKILKDSNKISIGSDSGVAERMLNHFLNSKSSPLSSVSSVDHEEQTLRQDSLSSDKNPMTMKKPKLNKRVLPSKPKKSVKENLDELSRRNIDVMHLQHILTNHLAFANVQQTPLFQLQQVNSQISELSRDELRSILSDAKCVGVIYRHGKDAAGKPLDEEYFYDLENDDDYERRNLVSSLKGGRTGLRSCRRTHKQYFWKKPAK	0.708	2.373	8.484	0.502	0.593	2.397	2.136
YHP1: purified yeast protein tested as Cdk1 substrate (protein, UniProt Q04116 1-353, looked up) Homeobox protein YHP1: MESRNTVLPSLPNIITGTSNSPFQLHTLPNTNFPSDDQGDIRLPPLAASAHIVRPVVNIYKSPCDEERPKRKSPQAVDFLSQRVTTSMTPLSKPKKLSSHSPFTPTVRVCSKEQPPQSMHSYKKVNILTPLSAAKAVLTPTTRKEKKRSFAFITHSQETFPKKEPKIDNARLARRKRRRTSSYELGILQTAFDECPTPNKAKRIELSEQCNMSEKSVQIWFQNKRQAAKKHKNSGNTSHCKVHSNDSMSMISYSDAALEITSTPTSTKEAITAELLKTSPANTSSIFEDHHITPCKPGGQLKFHRKSVLVKRTLSNTGHSEIIKSPKGKENRLKFNAYERKPLGEVDLNSFKN	0.524	0.385	0.066	0.020	0.002	0.009	0.046
CDC6: replication factor and pre-RC component, tested as Cdk1 substrate (protein, UniProt P09119 1-513, looked up) Cell division control protein …: MSAIPITPTKRIRRNLFDDAPATPPRPLKRKKLQFTDVTPESSPEKLQFGSQSIFLRTKALLQKSSELVNLNSSDGALPARTAEYEQVMNFLAKAISEHRSDSLYITGPPGTGKTAQLDMIIRQKFQSLPLSLSTPRSKDVLRHTNPNLQNLSWFELPDGRLESVAVTSINCISLGEPSSIFQKIFDSFQDLNGPTLQIKNMQHLQKFLEPYHKKTTFVVVLDEMDRLLHANTSETQSVRTILELFLLAKLPTVSFVLIGMANSLDMKDRFLSRLNLDRGLLPQTIVFQPYTAEQMYEIVIQKMSSLPTIIFQPMAIKFAAKKCAGNTGDLRKLFDVLRGSIEIYELEKRFLLSPTRGSLNSAQVPLTPTTSPVKKSYPEPQGKIGLNYIAKVFSKFVNNNSTRTRIAKLNIQQKLILCTIIQSLKLNSDATIDESFDHYIKAITKTDTLAPLQRNEFLEICTILETCGLVSIKKTKCKGKTKRFVDKIDVDLDMREFYDEMTKISILKPFLH	0.084	0.078	2.268	2.898	0.138	0.350	1.688
XBP1: purified yeast protein tested as Cdk1 substrate (protein, UniProt P40489 1-647, looked up) Transcriptional repressor XBP1: MKYPAFSINSDTVHLTDNPLDDYQRLYLVSVLDRDSPPASFSAGLNIRKVNYKSSIAAQFTHPNFIISARDAGNGEEAAAQNVLNCFEYQFPNLQTIQSLVHEQTLLSQLASSATPHSALHLHDKNILMGKIILPSRSNKTPVSASPTKQEKKALSTASRENATSSLTKNQQFKLTKMDHNLINDKLINPNNCVIWSHDSGYVFMTGIWRLYQDVMKGLINLPRGDSVSTSQQQFFCKAEFEKILSFCFYNHSSFTSEESSSVLLSSSTSSPPKRRTSTGSTFLDANASSSSTSSTQANNYIDFHWNNIKPELRDLICQSYKDFLINELGPDQIDLPNLNPANFTKRIRGGYIKIQGTWLPMEISRLLCLRFCFPIRYFLVPIFGPDFPKDCESWYLAHQNVTFASSTTGAGAATAATAAANTSTNFTSTAVARPRQKPRPRPRQRSTSMSHSKAQKLVIEDALPSFDSFVENLGLSSNDKNFIKKNSKRQKSSTYTSQTSSPIGPRDPTVQILSNLASFYNTHGHRYSYPGNIYIPQQRYSLPPPNQLSSPQRQLNYTYDHIHPVPSQYQSPRHYNVPSSPIAPAPPTFPQPYGDDHYHFLKYASEVYKQQNQRPAHNTNTNMDTSFSPRANNSLNNFKFKTNSKQ	0.200	0.103	0.065	0.020	0.007	0.013	0.084
CDH1: protein purified using the baculovirus system, tested as Cdk1 substrate (protein, UniProt P53197 1-566, looked up) APC/C activator protein CDH1: MSTNLNPFMNNTPSSSPLKGSESKRVSKRPISSSSSASLLSSPSRRSRPSTVYGDRYIPSRTDIDFNSIVSISSMASVPALNPSSTEDQVEYQKERQAHETYNTLLKNELFGEMLSKDTVGSESSIDRIKNTRPSTRGNVHAENTTRHGYELERVSTPPPEAAGLEEFSPHSTPVTPRRLFTSQQDEITRPSSNSVRGASLLTYQQRKGRRLSAASLLQSQFFDSMSPVRPDSKQLLLSPGKQFRQIAKVPYRVLDAPSLADDFYYSLIDWSSTDVLAVALGKSIFLTDNNTGDVVHLCDTENEYTSLSWIGAGSHLAVGQANGLVEIYDVMKRKCIRTLSGHIDRVACLSWNNHVLTSGSRDHRILHRDVRMPDPFFETIESHTQEVCGLKWNVADNKLASGGNDNVVHVYEGTSKSPILTFDEHKAAVKAMAWSPHKRGVLATGGGTADRRLKIWNVNTSIKMSDIDSGSQICNMVWSKNTNELVTSHGYSKYNLTLWDCNSMDPIAILKGHSFRVLHLTLSNDGTTVVSGAGDETLRYWKLFDKPKAKVQPNSLIFDAFNQIR	0.016	0.035	0.024	0.025	0.006	0.008	0.023
WHI5: repressor of the G1-specific SBF transcription factor, tested as Cdk1 substrate (protein, UniProt Q12416 1-295, looked up) G1-specific transcriptional …: MSLRTPKRSRTSDEQEQEQEQEQVQNPDTHVNNEHQQRPGPTTLLSTPVRLKNGFGTPSPPSPPGITKSITKSRRRPSTTSLQGIFMSPVNKRRVGITAHGRVYDHNDDGHESESEDDENEEENENQKKYDGHVSMPLLPPTTPKSRRSEVFLSPSPRLRSPPTAARRSTGERPIREISHTLRTRLNYALVKLQNGWTDKTLPELETELAPAVQTPPRRYHNRFPDSADAGTSAHTAFLQALGGHPPREEATAVETLMLLSSPTKKQQHRPVPATSAGEPTDETEPESDTEVETS	0.283	0.046	0.033	0.016	0.001	0.006	0.027
